Results: article PMC2646144

Experiments:
[1] = target: M3-protein heterologously expressed on the surface of S. gordonii GP1221 (SGO M3) (S. pyogenes | not stated); assay: radioligand binding; about 14 ng 125I-CIV or 125I-CB3 added to 250 µl bacterial suspension (S. gordonii expressing M3), room temperature 45 min, pellet-associated radioactivity as percentage of input
[2] = target: Collagen type IV from human placenta, full length (human) (UniProt P02462); assay: SPR; BIAcore 2000, CIV or CB3 immobilised on CM5 chip by amine coupling, M3-protein injected at 6.25-50 µg/ml, 10 mM HEPES, 100 mM NaCl, pH 7.4; apparent dissociation constants

Substance | percent of the 125I-labeled ligand bound [1] [%] | Kd [2] [nM]
Cyanogen bromide fragment 3 (CB3) of collagen type IV (domain or fragment) | > 80 | 
Collagen type IV from human placenta, full length (from UniProt P02462 28-1669; P08572 26-1712) (complex) | > 80 | 
GST-M3-protein (recombinant streptococcal M-protein type 3) (natural protein) |  | 5
